Results on six sequences are retold here after the supplement of paper PMC5998384.

Data set [1] deals with HeLa Kyoto. Kind of data set: thermal stability score vs G1/S (z-score of summed log2 fold changes over temperatures); higher = more thermally stable than in G1/S.
Data set [2] has as its system HeLa Kyoto. As to the kind of experiment: solubility change mitosis vs G1/S (difference of NP-40 vs SDS log2 ratios) (log2 ratio difference); higher = more soluble in mitosis.
Data set [3] deals with HeLa Kyoto. Kind of data set: solubility in G1/S (NP-40 vs SDS abundance) (log2 ratio); higher = more soluble. Conditions: cell cycle stage: G1/S.
The subject of data set [4] is HeLa Kyoto. Kind of data set: melting temperature (median over replicates), in situ; higher = more thermally stable.
[5] abbreviates: cell cycle stage: early G1 (4.5 h after nocodazole release).
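For melting temperature (median over replicates), in situ in this document: HeLa Kyoto cells synchronized by double thymidine or nocodazole block, proteins quantified by TMT10plex mass spectrometry, three independent biological replicates.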
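For solubility change mitosis vs G1/S (difference of NP-40 vs SDS log2 ratios) in this document: synchronized HeLa Kyoto cells (double thymidine block for G1/S, nocodazole release for mitosis), protein amounts in NP-40 versus SDS lysates quantified by mass spectrometry, three biological replicates.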
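For solubility in G1/S (NP-40 vs SDS abundance) in this document: HeLa Kyoto cells arrested at G1/S by double thymidine block, proteins quantified by TMT10plex mass spectrometry in mild NP-40 versus SDS extracts, three biological replicates.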
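For thermal stability score vs G1/S (z-score of summed log2 fold changes over temperatures) in this document: synchronized HeLa Kyoto cells, proteins quantified by TMT10plex mass spectrometry, three biological replicates, mitosis taken 0.5 h after nocodazole release, G1/S directly after double thymidine block.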

In the case of “MRRLNRKKTLSLVKELDAFPKVPESYVETSASGGTVSLIAFTTMALLTIMEFSVYQDTWMKYEYEVDKDFSSKLRINIDITVAMKCQYVGADVLDLAETMVASADGLVYEPTVFDLSPQQKEWQRMLQLIQSRLQEEHSLQDVIFKSAFKSTSTALPPREDDSSQSPNACRIHGHLYVNKVAGNFHITVGKAIPHPRGHAHLAALVNHESYNFSHRIDHLSFGELVPAIINPLDGTEKIAIDHNQMFQYFITVVPTKLHTYKISADTHQFSVTERERIINHAAGSHGVSGIFMKYDLSSLMVTVTEEHMPFWQFFVRLCGIVGGIFSTTGMLHGIGKFIVEIICCRFRLGSYKPVNSVPFEDGHTDNHLPLLENNTH [ERGIC2]”, the figures for the thermal stability score in the data set with HeLa Kyoto [1] (setting [5]) and in the data set on HeLa Kyoto [1] (cell cycle stage: mitosis) were -2.27 and -7.02, respectively. For the same sequence, the “solubility change mitosis (log2)” value in the data set with HeLa Kyoto [2] is -0.216. Moreover, the “solubility in G1/S (log2)” value in the data set on HeLa Kyoto [3] was -0.0386. For the same sequence, the results for the melting temperature in the data set with HeLa Kyoto [4] (cell cycle stage: G1/S) and in the data set with HeLa Kyoto [4] (cell cycle stage: mitosis) were 54.8 °C and 53.8 °C, respectively.
As for “MRRMWATQGLAVALALSVLPGSRALRPGDCEVCISYLGRFYQDLKDRDVTFSPATIENELIKFCREARGKENRLCYYIGATDDAATKIINEVSKPLAHHIPVEKICEKLKKKDSQICELKYDKQIDLSTVDLKKLRVKELKKILDDWGETCKGCAEKSDYIRKINELMPKYAPKAASARTDL [MANF]”, the figures for the thermal stability score in the data set with HeLa Kyoto [1] (setting [5]) and in the data set on HeLa Kyoto [1] (cell cycle stage: mitosis) were -0.366 and -3.76, respectively. Further, in the data set on HeLa Kyoto [2], the “solubility change mitosis (log2)” value came to 0.0195. Moreover, in the data set with HeLa Kyoto [3], the “solubility in G1/S (log2)” value amounted to 0.682. The melting temperature is 54.1 °C in the data set with HeLa Kyoto [4] (cell cycle stage: G1/S) and 52.7 °C in the data set with HeLa Kyoto [4] (cell cycle stage: mitosis).
“MRRSEVLAEESIVCLQKALNHLREIWELIGIPEDQRLQRTEVVKKHIKELLDMMIAEEESLKERLIKSISVCQKELNTLCSELHVEPFQEEGETTILQLEKDLRTQVELMRKQKKERKQELKLLQEQDQELCEILCMPHYDIDSASVPSLEELNQFRQHVTTLRETKASRREEFVSIKRQIILCMEALDHTPDTSFERDVVCEDEDAFCLSLENIATLQKLLRQLEMQKSQNEAVCEGLRTQIRELWDRLQIPEEEREAVATIMSGSKAKVRKALQLEVDRLEELKMQNMKKVIEAIRVELVQYWDQCFYSQEQRQAFAPFCAEDYTESLLQLHDAEIVRLKNYYEVHKELFEGVQKWEETWRLFLEFERKASDPNRFTNRGGNLLKEEKQRAKLQKMLPKLEEELKARIELWEQEHSKAFMVNGQKFMEYVAEQWEMHRLEKERAKQERQLKNKKQTETEMLYGSAPRTPSKRRGLAPNTPGKARKLNTTTMSNATANSSIRPIFGGTVYHSPVSRLPPSGSKPVAASTCSGKKTPRTGRHGANKENLELNGSILSGGYPGSAPLQRNFSINSVASTYSEFAKDPSLSDSSTVGLQRELSKASKSDATSGILNSTNIQS [PRC1]”: the results for the thermal stability score in the data set on HeLa Kyoto [1] (setting [5]) and in the data set with HeLa Kyoto [1] (cell cycle stage: mitosis) were 5.68 and 7.18, respectively. The “solubility change mitosis (log2)” value in the data set on HeLa Kyoto [2] turned out to be 0.431. The “solubility in G1/S (log2)” value with HeLa Kyoto [3] is 0.0588. The melting temperature in the data set with HeLa Kyoto [4] (cell cycle stage: G1/S) worked out at 47.1 °C; in the data set on HeLa Kyoto [4] (cell cycle stage: mitosis), 49 °C.
Turning to “MRSARSTALNRGEQRAVRYYSHMKLNMAEEEDYMSDSFINVQEDIRPGLPMLRQIREARRKEEKQQEANLKNRQKSLKEEEQERRDIGLKNALGCENKGFALLQKMGYKSGQALGKSGGGIVEPIPLNIKTGKSGIGHEASLKRKAEEKLESYRKKIHMKNQAEEKAAEQFRMRLKNKQDEMKLEGDLRRSQRACQQLDVQKNIQVPREAWYWLRLEEETEEDEEEKEQDEDEYKSEDLSVLEKLQILTSYLREEHLYCIWCGTAYEDKEDLSSNCPGPTSADHD [GPATCH11]”, the thermal stability score in the data set on HeLa Kyoto [1] (setting [5]) is -1.77; in the data set on HeLa Kyoto [1] (cell cycle stage: mitosis), -0.0183. Besides, the “solubility change mitosis (log2)” value in the data set with HeLa Kyoto [2] was determined as 0.138. For the same sequence, the “solubility in G1/S (log2)” value in the data set with HeLa Kyoto [3] was found to be 0.127. Moreover, the melting temperature in the data set with HeLa Kyoto [4] (cell cycle stage: G1/S) stood at 52.1 °C; in the data set on HeLa Kyoto [4] (cell cycle stage: mitosis), 52.3 °C.
With “MRSSCVLLTALVALAAYYVYIPLPGSVSDPWKLMLLDATFRGAQQVSNLIHYLGLSHHLLALNFIIVSFGKKSAWSSAQVKVTDTDFDGVEVRVFEGPPKPEEPLKRSVVYIHGGGWALASAKIRYYDELCTAMAEELNAVIVSIEYRLVPKVYFPEQIHDVVRATKYFLKPEVLQKYMVDPGRICISGDSAGGNLAAALGQQFTQDASLKNKLKLQALIYPVLQALDFNTPSYQQNVNTPILPRYVMVKYWVDYFKGNYDFVQAMIVNNHTSLDVEEAAAVRARLNWTSLLPASFTKNYKPVVQTTGNARIVQELPQLLDARSAPLIADQAVLQLLPKTYILTCEHDVLRDDGIMYAKRLESAGVEVTLDHFEDGFHGCMIFTSWPTNFSVGIRTRNSYIKWLDQNL [NCEH1]”, the thermal stability score is -0.627 with HeLa Kyoto [1] (setting [5]) and -0.868 with HeLa Kyoto [1] (cell cycle stage: mitosis). The “solubility change mitosis (log2)” value with HeLa Kyoto [2] was -0.118. For the same sequence, the “solubility in G1/S (log2)” value in the data set on HeLa Kyoto [3] amounted to 0.156. Also, the melting temperature in the data set on HeLa Kyoto [4] (cell cycle stage: G1/S) was 57.4 °C; in the data set with HeLa Kyoto [4] (cell cycle stage: mitosis) it was 57.7 °C.
For the sequence “MSAAGLLAPAPAQAGAPPAPEYYPEEDEELESAEDDERSCRGRESDEDTEDASETDLAKHDEEDYVEMKEQMYQDKLASLKRQLQQLQEGTLQEYQKRMKKLDQQYKERIRNAELFLQLETEQVERNYIKEKKAAVKEFEDKKVELKENLIAELEEKKKMIENEKLTMELTGDSMEVKPIMTRKLRRRPNDPVPIPDKRRKPAPAQLNYLLTDEQIMEDLRTLNKLKSPKRPASPSSPEHLPATPAESPAQRFEARIEDGKLYYDKRWYHKSQAIYLESKDNQKLSCVISSVGANEIWVRKTSDSTKMRIYLGQLQRGLFVIRRRSAA [SUDS3]”, the thermal stability score in the data set with HeLa Kyoto [1] (setting [5]) was found to be 0.216; in the data set on HeLa Kyoto [1] (cell cycle stage: mitosis) it was 0.399. In the data set with HeLa Kyoto [2], the “solubility change mitosis (log2)” value turned out to be 0.238. Further, the “solubility in G1/S (log2)” value with HeLa Kyoto [3] came out at 0.341. The melting temperature in the data set with HeLa Kyoto [4] (cell cycle stage: G1/S) came out at 49 °C; in the data set with HeLa Kyoto [4] (cell cycle stage: mitosis), 50.6 °C.
